The values below come from patent US20230242902A1, “A HIGHLY ERROR-PRONE […] R[…] FOR TARGETED CONTINUOUS EVOLUTION IN VIVO” (The Regents of the University of California, priority 2017, published 2023).

For this assay, the system named is p1. Kind of assay: p1 copy number by p1-encoded mKate2 fluorescence. The assay is classed as cell-based, S. cerevisiae. The note with it: OR-Y24, measured in triplicate. How it is done:
A calibration curve was established to correlate p1 copy number, determined via quantitative PCR (qPCR), with fluorescence of p1-encoded mKate2 (Table 1). Five TP-DNAP1 variants representing a wide range of copy numbers were transformed into ORY24 and passaged until w.t. p1 was displaced. The five OR-Y24 strains were grown to saturation, diluted 1:10,000 to mimic p1 fluctuation tests, and grown in triplicate 100 μL cultures and duplicate 40 mL cultures. 100 μL saturated cultures were subject to fluorescence measurement of mKate2 (ex/em=561 nm/620 nm, bandwidth=15 nm) on a flow cytometer (Invitrogen Attune NxT). Whole-cell DNA extracts were prepared from 40 mL cultures and used as templates for qPCR measurement of p1-encoded leu2 (Q180*), as described previously (Ravikumar et al., 2014). p1-encoded LEU2 was PCR amplified with qPCR-Leu2F and qPCR Leu2R; and genomic LEU3 was PCR amplified with qPCR-Leu3F and qPCR-Leu3R using SyBR Green (Fisher Scientific) master mix.
To assay p1 copy number for large-scale p1 fluctuation tests, additional replicates of OR-Y24 strains were grown from the 1:10,000 dilution in triplicate and saturated cultures were subject to fluorescence measurement via flow cytometry. Fluorescence measurements were converted to copy number with the linear calibration curve.
To assay relative p1 copy number for small-scale p1 fluctuation tests, an additional 200 μL culture of OR-Y24 strains were grown from the 1:10,000 dilution. 200 μL saturated cultures were subject to an OD600 measurement and fluorescence measurement of mKate2 (ex/em=588 nm/633 nm), using a microplate reader (TECAN Infinite M200 PRO). A linear relationship was assumed between p1 copy number and OD600-normalized mKate2 fluorescence. Copy numbers were calculated from normalization to a w.t. TP-DNAP1 control.
For a few large-scale p1 fluctuation tests, p1 copy number was assayed by the method of small scale p1 fluctuation tests (i.e. microplate reader measurement). For these experiments, mutant TP-DNAP1 p1 copy numbers were calculated by normalization to a w.t. TP-DNAP1 control. The copy number of this control was assumed to be the average w.t. TP-DNAP1 copy number from all large-scale p1 fluctuation tests that used flow cytometry measurements.
TP-DNAP1 plasmids were isolated from these strains and subject to Sanger sequencing. 210 unique variants were identified and the corresponding plasmids were re-transformed into OR-Y24. Transformed strains were passaged in SC-UH until w.t. p1 was displaced, and subject to p1 copy number measurement in triplicate. Four high copy variants were directly subject to qPCR measurements for validation. To test the suppressor activity of the G410H mutation, which yields increased p1 copy number, this amino acid change was added to several low-activity TP-DNAP1 variants. p1 copy number was similarly assayed for these strains.

B1: G410F: TP-DNAP1 variant (protein)
chain: MDYKDKALNDLRNVYADFDSLPLDFRQILIKDRATLLQKEDVEKKILERQEDAKKYAEYLKQSEIPERISLPNIKRHKGVSISFEETSEDMVLEPRPFIFDGLNIRCFRRETIFSLKNKILNMVKESSSFKNVSRQSVSFMYFKIFNKGKVIASTKSVNIYEDKIDERLEDLCNNFDDVLKKIIDVTYGYESLFVSETYSYVIFYAKSIYFPQPRCVNNWGNNIPNILTFDSFKLFTANKNNVSCIKQCSRFLWQKDFNTLEEMIEYKNGNICIVTPQLHINDVRDIKSFNDIRLYSESPIKTFSVIDNTITYLFYFKEHLGVIFNITKSRHDRRVTKFSPLSKFSDVKNITVCFDIESYFDPEKESNQVNIPFICCASIIYNKVIGNIVDFEGRDCVAQMIEYVVDICFELNISSVELIAHNGGGYDFHYILSSMYNPAAIKNILIRNNSFISFNFAHDGVKFSVKDSYSFLLCSLANASKAFLNEETFKKTDFPHHDLKTADDLYKVYKEWSSVNTEINHVVEKEKLLITSEHIVNFTKNDKSKTLIEWSKDYCRNDVLVLSKVWLEFKNAVEDIFNCELVDQTMTLAGLSYKLFQANMPFDVELRHPNKEDYFNMREALIGGRCISVNGIYKDVLCLDVKSLYPASMAFYDQPYGSFKRVSSRPKDELGIYYVRVTPNRNNKSNFFPIRSHNKITYNNFEESTYIAWYTNVDIDIGLSEGHNIEYIPFDSYGNIGYSWSKKGKIFEKYIKDVLYKLKIKYEKQNNKVKRNVIKIIMNSLWGKFAQKWVNFEYFIKSEDDIDFESEEAYKIWDTDFMLIKKIKESTYSSKPIQNGVFTLSWARYHMKSIWDAGAKEGAECIYSDTDSIFVHKEHFKKNAKFMLNGLKVPIIGSEVGQLELECEFDKLLCAGKKQYMGFYTYFQDGKPCIKEKKRFKGIPSNYIIPELYAHLLSGADKEAKIQFLKFRREWGSVKGYIENKTVKAT
Regarding B1, the “Mean fold-increase over w.t. (p1 copy number)” value (“Mean fold-increase” below) was 2.66 fold.

B2: G410T: TP-DNAP1 variant (protein)
chain: MDYKDKALNDLRNVYADFDSLPLDFRQILIKDRATLLQKEDVEKKILERQEDAKKYAEYLKQSEIPERISLPNIKRHKGVSISFEETSEDMVLEPRPFIFDGLNIRCFRRETIFSLKNKILNMVKESSSFKNVSRQSVSFMYFKIFNKGKVIASTKSVNIYEDKIDERLEDLCNNFDDVLKKIIDVTYGYESLFVSETYSYVIFYAKSIYFPQPRCVNNWGNNIPNILTFDSFKLFTANKNNVSCIKQCSRFLWQKDFNTLEEMIEYKNGNICIVTPQLHINDVRDIKSFNDIRLYSESPIKTFSVIDNTITYLFYFKEHLGVIFNITKSRHDRRVTKFSPLSKFSDVKNITVCFDIESYFDPEKESNQVNIPFICCASIIYNKVIGNIVDFEGRDCVAQMIEYVVDICTELNISSVELIAHNGGGYDFHYILSSMYNPAAIKNILIRNNSFISFNFAHDGVKFSVKDSYSFLLCSLANASKAFLNEETFKKTDFPHHDLKTADDLYKVYKEWSSVNTEINHVVEKEKLLITSEHIVNFTKNDKSKTLIEWSKDYCRNDVLVLSKVWLEFKNAVEDIFNCELVDQTMTLAGLSYKLFQANMPFDVELRHPNKEDYFNMREALIGGRCISVNGIYKDVLCLDVKSLYPASMAFYDQPYGSFKRVSSRPKDELGIYYVRVTPNRNNKSNFFPIRSHNKITYNNFEESTYIAWYTNVDIDIGLSEGHNIEYIPFDSYGNIGYSWSKKGKIFEKYIKDVLYKLKIKYEKQNNKVKRNVIKIIMNSLWGKFAQKWVNFEYFIKSEDDIDFESEEAYKIWDTDFMLIKKIKESTYSSKPIQNGVFTLSWARYHMKSIWDAGAKEGAECIYSDTDSIFVHKEHFKKNAKFMLNGLKVPIIGSEVGQLELECEFDKLLCAGKKQYMGFYTYFQDGKPCIKEKKRFKGIPSNYIIPELYAHLLSGADKEAKIQFLKFRREWGSVKGYIENKTVKAT
Take B2: the “Mean fold-increase” value was determined as 2.57 fold.

B3: G410Y: TP-DNAP1 variant (protein)
chain: MDYKDKALNDLRNVYADFDSLPLDFRQILIKDRATLLQKEDVEKKILERQEDAKKYAEYLKQSEIPERISLPNIKRHKGVSISFEETSEDMVLEPRPFIFDGLNIRCFRRETIFSLKNKILNMVKESSSFKNVSRQSVSFMYFKIFNKGKVIASTKSVNIYEDKIDERLEDLCNNFDDVLKKIIDVTYGYESLFVSETYSYVIFYAKSIYFPQPRCVNNWGNNIPNILTFDSFKLFTANKNNVSCIKQCSRFLWQKDFNTLEEMIEYKNGNICIVTPQLHINDVRDIKSFNDIRLYSESPIKTFSVIDNTITYLFYFKEHLGVIFNITKSRHDRRVTKFSPLSKFSDVKNITVCFDIESYFDPEKESNQVNIPFICCASIIYNKVIGNIVDFEGRDCVAQMIEYVVDICYELNISSVELIAHNGGGYDFHYILSSMYNPAAIKNILIRNNSFISFNFAHDGVKFSVKDSYSFLLCSLANASKAFLNEETFKKTDFPHHDLKTADDLYKVYKEWSSVNTEINHVVEKEKLLITSEHIVNFTKNDKSKTLIEWSKDYCRNDVLVLSKVWLEFKNAVEDIFNCELVDQTMTLAGLSYKLFQANMPFDVELRHPNKEDYFNMREALIGGRCISVNGIYKDVLCLDVKSLYPASMAFYDQPYGSFKRVSSRPKDELGIYYVRVTPNRNNKSNFFPIRSHNKITYNNFEESTYIAWYTNVDIDIGLSEGHNIEYIPFDSYGNIGYSWSKKGKIFEKYIKDVLYKLKIKYEKQNNKVKRNVIKIIMNSLWGKFAQKWVNFEYFIKSEDDIDFESEEAYKIWDTDFMLIKKIKESTYSSKPIQNGVFTLSWARYHMKSIWDAGAKEGAECIYSDTDSIFVHKEHFKKNAKFMLNGLKVPIIGSEVGQLELECEFDKLLCAGKKQYMGFYTYFQDGKPCIKEKKRFKGIPSNYIIPELYAHLLSGADKEAKIQFLKFRREWGSVKGYIENKTVKAT
On to B3, for which the “Mean fold-increase” value came out at 2.73 fold.

B4: G410W: TP-DNAP1 variant (protein)
chain: MDYKDKALNDLRNVYADFDSLPLDFRQILIKDRATLLQKEDVEKKILERQEDAKKYAEYLKQSEIPERISLPNIKRHKGVSISFEETSEDMVLEPRPFIFDGLNIRCFRRETIFSLKNKILNMVKESSSFKNVSRQSVSFMYFKIFNKGKVIASTKSVNIYEDKIDERLEDLCNNFDDVLKKIIDVTYGYESLFVSETYSYVIFYAKSIYFPQPRCVNNWGNNIPNILTFDSFKLFTANKNNVSCIKQCSRFLWQKDFNTLEEMIEYKNGNICIVTPQLHINDVRDIKSFNDIRLYSESPIKTFSVIDNTITYLFYFKEHLGVIFNITKSRHDRRVTKFSPLSKFSDVKNITVCFDIESYFDPEKESNQVNIPFICCASIIYNKVIGNIVDFEGRDCVAQMIEYVVDICWELNISSVELIAHNGGGYDFHYILSSMYNPAAIKNILIRNNSFISFNFAHDGVKFSVKDSYSFLLCSLANASKAFLNEETFKKTDFPHHDLKTADDLYKVYKEWSSVNTEINHVVEKEKLLITSEHIVNFTKNDKSKTLIEWSKDYCRNDVLVLSKVWLEFKNAVEDIFNCELVDQTMTLAGLSYKLFQANMPFDVELRHPNKEDYFNMREALIGGRCISVNGIYKDVLCLDVKSLYPASMAFYDQPYGSFKRVSSRPKDELGIYYVRVTPNRNNKSNFFPIRSHNKITYNNFEESTYIAWYTNVDIDIGLSEGHNIEYIPFDSYGNIGYSWSKKGKIFEKYIKDVLYKLKIKYEKQNNKVKRNVIKIIMNSLWGKFAQKWVNFEYFIKSEDDIDFESEEAYKIWDTDFMLIKKIKESTYSSKPIQNGVFTLSWARYHMKSIWDAGAKEGAECIYSDTDSIFVHKEHFKKNAKFMLNGLKVPIIGSEVGQLELECEFDKLLCAGKKQYMGFYTYFQDGKPCIKEKKRFKGIPSNYIIPELYAHLLSGADKEAKIQFLKFRREWGSVKGYIENKTVKAT
With B4, the “Mean fold-increase” value worked out at 2.5 fold.

B5: G410S: TP-DNAP1 variant (protein)
chain: MDYKDKALNDLRNVYADFDSLPLDFRQILIKDRATLLQKEDVEKKILERQEDAKKYAEYLKQSEIPERISLPNIKRHKGVSISFEETSEDMVLEPRPFIFDGLNIRCFRRETIFSLKNKILNMVKESSSFKNVSRQSVSFMYFKIFNKGKVIASTKSVNIYEDKIDERLEDLCNNFDDVLKKIIDVTYGYESLFVSETYSYVIFYAKSIYFPQPRCVNNWGNNIPNILTFDSFKLFTANKNNVSCIKQCSRFLWQKDFNTLEEMIEYKNGNICIVTPQLHINDVRDIKSFNDIRLYSESPIKTFSVIDNTITYLFYFKEHLGVIFNITKSRHDRRVTKFSPLSKFSDVKNITVCFDIESYFDPEKESNQVNIPFICCASIIYNKVIGNIVDFEGRDCVAQMIEYVVDICSELNISSVELIAHNGGGYDFHYILSSMYNPAAIKNILIRNNSFISFNFAHDGVKFSVKDSYSFLLCSLANASKAFLNEETFKKTDFPHHDLKTADDLYKVYKEWSSVNTEINHVVEKEKLLITSEHIVNFTKNDKSKTLIEWSKDYCRNDVLVLSKVWLEFKNAVEDIFNCELVDQTMTLAGLSYKLFQANMPFDVELRHPNKEDYFNMREALIGGRCISVNGIYKDVLCLDVKSLYPASMAFYDQPYGSFKRVSSRPKDELGIYYVRVTPNRNNKSNFFPIRSHNKITYNNFEESTYIAWYTNVDIDIGLSEGHNIEYIPFDSYGNIGYSWSKKGKIFEKYIKDVLYKLKIKYEKQNNKVKRNVIKIIMNSLWGKFAQKWVNFEYFIKSEDDIDFESEEAYKIWDTDFMLIKKIKESTYSSKPIQNGVFTLSWARYHMKSIWDAGAKEGAECIYSDTDSIFVHKEHFKKNAKFMLNGLKVPIIGSEVGQLELECEFDKLLCAGKKQYMGFYTYFQDGKPCIKEKKRFKGIPSNYIIPELYAHLLSGADKEAKIQFLKFRREWGSVKGYIENKTVKAT
As for B5, the “Mean fold-increase” value was 2.27 fold.
